The text below walks through data of patent US20170119913A1.

The target in assay [1] is NTR1 on HT29 or NTR1-expressing HEK293 cells (UniProt P30989). Put plainly: cell-based or functional assay.
Assay [2] has as its target neurotensin receptor 1 (NTR1), human, prepared from CHO cells recombinantly expressing the human receptor (human) (UniProt P30989).
Assay [3] has as its target sst (non-selective), somatostatin receptor. The experiment in a line: Cerep ExpresSProfile radioligand competition binding, reference compound (agonist radioligand). For orientation: Displacement assays read how much labelled ligand stays bound in the presence of the test substance.

Bounds are passed on as bounds.

NTR1 on HT29 or NTR1-expressing HEK293 cells, sequence (P30989 whole entry): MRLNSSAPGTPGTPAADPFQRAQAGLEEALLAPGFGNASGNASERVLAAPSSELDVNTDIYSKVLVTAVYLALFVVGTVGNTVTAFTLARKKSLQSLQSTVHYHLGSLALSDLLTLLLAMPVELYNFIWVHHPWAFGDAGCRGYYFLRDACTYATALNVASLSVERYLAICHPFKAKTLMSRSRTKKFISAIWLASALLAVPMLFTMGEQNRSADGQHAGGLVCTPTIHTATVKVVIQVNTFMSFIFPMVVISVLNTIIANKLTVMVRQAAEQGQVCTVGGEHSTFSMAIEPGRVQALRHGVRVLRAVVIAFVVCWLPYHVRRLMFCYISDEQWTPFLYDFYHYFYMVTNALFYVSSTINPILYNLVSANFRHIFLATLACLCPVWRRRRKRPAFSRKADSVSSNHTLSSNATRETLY
neurotensin receptor 1 (NTR1), human, prepared from CHO cells recombinantly expressing the human receptor (human), sequence (P30989 whole entry): as above

In assay [1], “1206-Glutar-Ttds3-Asn-Ala-Val-Pro-Asn-Leu-Arg-Gly-Asp-Leu-Gln-Val-Leu-Ala-Gln-Lys-Val-Ala-Arg-Thr-GA (peptide)” returned an Agonistic Effect EC50 [nM], functional Ca2+ mobilisation assay above 50000 nM and an Antagonistic Effect IC50 [nM], functional Ca2+ mobilisation assay of 38 nM. The IC50 in assay [2] stood at 9.9 nM.
As to “1206-Glutar-Ttds-Lys(1206-Glutar-Ttds)-Ttds-Asn-Ala-Val-Pro-Asn-Leu-Arg-Gly-Asp-Leu-Gln-Val-Leu-Ala- (peptide)”, in assay [1], the Agonistic Effect EC50 [nM], functional Ca2+ mobilisation assay is above 50000 nM and the Antagonistic Effect IC50 [nM], functional Ca2+ mobilisation assay was 12 nM. In assay [2], the IC50 amounted to 7.5 nM.
For “1206-Glutar-Ttds-Lys(DOTA)-Ttds-GABA-Asn-Ala-Val-Pro-Asn-Leu-Arg-Gly-Asp-Leu-Gln-Val-Leu-Ala-Gln-Lys (peptide)”, in assay [1], the Agonistic Effect EC50 [nM], functional Ca2+ mobilisation assay was above 50000 nM and the Antagonistic Effect IC50 [nM], functional Ca2+ mobilisation assay amounted to 18 nM. In addition, the IC50 in assay [2] was 10 nM.
The substance “alpha-dendrotoxin (from UniProt P00980 1-59) (peptide)” yielded a Ki with KV channel of 0.2 nM.
As to “apamin (from UniProt P01500 28-45) (peptide)”, the Ki with SKCa channel was 0.0084 nM. That is a picomolar value.
As for “somatostatin-14 (from UniProt P61278 103-116) (peptide)”, the inhibition constant (Ki) in assay [3] was found to be 0.11 nM.

In general, IC50 refers to the concentration that inhibits the measured activity by half. The Ki is the equilibrium dissociation constant of an inhibitor or competing ligand from its target. Read a high Ki as weaker binding.
